Data taken from patent publication US20170081400A1 (CEPHALON, published 2017).

How the values were obtained:
[1] = target: T1, human TL1A extracellular domain with N-terminal HIS and FLAG tag (human, UniProt O95150 72-251); assay: SPR run 2; supernatant on Protein A; TL1A 10 ug/mL; timepoint 44
T1 construct: whole entry named. ~70 kDa fraction purified by gel filtration
T1 sequence: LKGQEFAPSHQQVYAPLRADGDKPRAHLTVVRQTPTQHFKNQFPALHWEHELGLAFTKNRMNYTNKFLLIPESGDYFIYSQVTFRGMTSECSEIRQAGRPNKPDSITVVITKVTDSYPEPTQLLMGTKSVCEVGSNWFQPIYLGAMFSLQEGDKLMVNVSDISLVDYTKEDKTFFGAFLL
In short: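 The capture level was the response change at the end of loading, which varied by run. Antigen response was read before dissociation ended, double-referenced against a reference flow cell and a buffer blank.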

[2] = target: T1, human TL1A extracellular domain with …; assay: SPR run 2; supernatant on Protein A; TL1A 10 ug/mL; timepoint 220
In short: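 Surface plasmon resonance on a Biacore T200 was used, with variants spread over several runs. Antibodies were captured via immobilized Protein A, and their capture level was recorded. Sensorgrams were double-referenced, and the antigen response was read near the end of dissociation.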

[3] = target: T1, human TL1A extracellular domain with …; assay: SPR run 2; purified antibody on Protein A; TL1A 10 ug/mL; timepoint 44
Text: (§1) 1.5. Antibody expression and antigen binding as determined by SPR. Using a CM5 sensor chip (GE Healthcare) Protein A (Pierce) was coupled to the chip surface using an amine coupling kit (GE Healthcare). Protein A was coupled on flow cell 1 and 2 (or alternatively 3 and 4) using a BIACORE® T200. […] The amount of supernatant or purified protein (as well as the concentration) injected during the capture stage varied between runs and is specified in the header of the Tables 3-11. At the end of injection of the supernatant or purified antibody the change in response units was measured. This value was reported as Capture Level in Tables 3-11. […] The response units were measured prior to the end of the dissociation phase. […] The sensorgrams were double referenced (flow cell 2 is subtracted from flow cell 1 and a buffer blank). As there were a large number of antibody variants to screen, these were screened across different runs (Tables 3-11). […] A summary of the conditions used in each run is below:
(§2) 2.1. […] In some experiment the antibodies were purified using Protein A chromatography (See 1.4) and purified antibodies were used in BIACORE® (GE Healthcare) experiments.

[4] = target: T1, human TL1A extracellular domain with …; assay: SPR run 2; purified antibody on Protein A; TL1A 10 ug/mL; timepoint 590
Text: as §1, §2

[5] = target: T2, human TL1A extracellular domain with N-terminal HIS and FLAG tag (human, UniProt O95150 72-251); assay: cell-based or functional assay
T2 sequence: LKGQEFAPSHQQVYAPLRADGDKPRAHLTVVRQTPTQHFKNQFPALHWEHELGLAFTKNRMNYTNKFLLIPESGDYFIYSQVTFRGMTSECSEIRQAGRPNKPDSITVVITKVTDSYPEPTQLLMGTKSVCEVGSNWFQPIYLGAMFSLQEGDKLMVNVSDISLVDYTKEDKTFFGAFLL

[6] = target: T2, human TL1A extracellular domain with …; assay: SPR Run 9, antibody on Protein A, TL1A 5 ug/mL, timepoint 44
Text: as §1, §2

[7] = target: T2, human TL1A extracellular domain with …; assay: SPR Run 9, antibody on Protein A, TL1A 5 ug/mL, timepoint 590
Text: as §1, §2

B1: 320-193 (antibody, human IgG1, name in Kabat numbering, V domains shown)
VH: QVQLVQSGAEVKKPGASVKVSCKASGYTFTSYDINWVRQAPGQGLEWMGWLNPNSGNTGYAQKFQGRVTMTADRSTSTAYMELSSLRSEDTAVYYCAREVPETAAFEYWGQGTLVTVSS
VL: QSVLTQPPSVSGAPGQRVTISCSSSSSDIGAGLGVHWYQQLPGTAPKLLIEGYYNRPSGVPDRFSGSKSGTSASLTITGLLPEDEGDYYCQSYDGTLSALFGGGTKLTVLG
notes: human IgG1, lambda
In the case of B1, the “TL1A Binding Level (Early)” value [1] is reported as 249 RU, the “TL1A Binding Level (Late)” value [2] is reported as 227 RU and the “TL1A Binding Level (Early)” value [3] is reported as 103 RU. For the same binder, the “TL1A Binding Level (Late)” value [4] was 91 RU.

B2: 320-194 (antibody, human IgG1, name in Kabat numbering, V domains shown)
VH: QVQLVQSGAEVKKPGASVKVSCKASGYTFTSYDINWVRQAPGQGLEWMGWLNPNSGNTGYAQKFQGRVTMTADRSTSTAYMELSSLRSEDTAVYYCAREVPETAAFEYWGQGTLVTVSS
VL: QSVLTQPPSVSGAPGQRVTISCQSSSSDIGAGLGVHWYQQLPGTAPKLLIEGYYNRPSGVPDRFSGSKSGTSASLTITGLLPEDEGDYYCQSYDGTLSALFGGGTKLTVLG
notes: human IgG1, lambda
For B2, the “TL1A Binding Level (Early)” value [1] was 247 RU, the “TL1A Binding Level (Late)” value [2] was 226 RU and the “TL1A Binding Level (Early)” value [3] was 76 RU. The “TL1A Binding Level (Late)” value [4] was 64 RU.

B3: 320-221 (antibody, human IgG1, name in Kabat numbering, V domains shown)
VH: QVQLVQSGAEVKKPGASVKVSCKASGYTFTSYDINWVRQAPGQGLEWMGWLNPNSGNTGYAQKFQGRVTMTADRSTSTAYMELSSLRSEDTAVYYCAREVPETAAFEYWGQGTLVTVSS
VL: QSVLTQPPSVSGAPGQRVTISCTSSKSDIGAGLGVHWYQQLPGTAPKLLIEGYYNRPSGVPDRFSGSKSGTSASLTITGLLPEDEGDYYCQSYDGTLSALFGGGTKLTVLG
notes: human IgG1, lambda
B3 was tested, and the “TL1A Binding Level (Early)” value [1] was 225 RU, the “TL1A Binding Level (Late)” value [2] was 207 RU and the “TL1A Binding Level (Early)” value [3] was 99 RU. The “TL1A Binding Level (Late)” value [4] was 89 RU.

B4: 320-233 (antibody, human IgG1, name in Kabat numbering, V domains shown)
VH: QVQLVQSGAEVKKPGASVKVSCKASGYTFTSYDINWVRQAPGQGLEWMGWLNPNSGNTGYAQKFQGRVTMTADRSTSTAYMELSSLRSEDTAVYYCAREVPETAAFEYWGQGTLVTVSS
VL: QSVLTQPPSVSGAPGQRVTISCTSSSSAIGAGLGVHWYQQLPGTAPKLLIEGYYNRPSGVPDRFSGSKSGTSASLTITGLLPEDEGDYYCQSYDGTLSALFGGGTKLTVLG
notes: human IgG1, lambda
With B4 the “TL1A Binding Level (Early)” value [1] was 255 RU, the “TL1A Binding Level (Late)” value [2] was 235 RU and the “TL1A Binding Level (Early)” value [3] was 48 RU. The “TL1A Binding Level (Late)” value [4] was 16 RU.

B5: 320-218 (antibody, human IgG1, name in Kabat numbering, V domains shown)
VH: QVQLVQSGAEVKKPGASVKVSCKASGYTFTSYDINWVRQAPGQGLEWMGWLNPNSGNTGYAQKFQGRVTMTADRSTSTAYMELSSLRSEDTAVYYCAREVPETAAFEYWGQGTLVTVSS
VL: QSVLTQPPSVSGAPGQRVTISCTSSQSDIGAGLGVHWYQQLPGTAPKLLIEGYYNRPSGVPDRFSGSKSGTSASLTITGLLPEDEGDYYCQSYDGTLSALFGGGTKLTVLG
notes: human IgG1, lambda
With B5 the “TL1A Binding Level (Early)” value [1] was 239 RU, the “TL1A Binding Level (Late)” value [2] was 218 RU and the “TL1A Binding Level (Early)” value [3] was 92 RU. The “TL1A Binding Level (Late)” value [4] was 80 RU.

B6: 320-199 (antibody, human IgG1, name in Kabat numbering, V domains shown)
VH: QVQLVQSGAEVKKPGASVKVSCKASGYTFTSYDINWVRQAPGQGLEWMGWLNPNSGNTGYAQKFQGRVTMTADRSTSTAYMELSSLRSEDTAVYYCAREVPETAAFEYWGQGTLVTVSS
VL: QSVLTQPPSVSGAPGQRVTISCWSSSSDIGAGLGVHWYQQLPGTAPKLLIEGYYNRPSGVPDRFSGSKSGTSASLTITGLLPEDEGDYYCQSYDGTLSALFGGGTKLTVLG
notes: human IgG1, lambda
B6 was tested, and the “TL1A Binding Level (Early)” value [1] was 251 RU, the “TL1A Binding Level (Late)” value [2] was 233 RU and the “TL1A Binding Level (Early)” value [3] was 97 RU. The “TL1A Binding Level (Late)” value [4] was 85 RU.

B7: 320-203 (antibody, human IgG1, name in Kabat numbering, V domains shown)
VH: QVQLVQSGAEVKKPGASVKVSCKASGYTFTSYDINWVRQAPGQGLEWMGWLNPNSGNTGYAQKFQGRVTMTADRSTSTAYMELSSLRSEDTAVYYCAREVPETAAFEYWGQGTLVTVSS
VL: QSVLTQPPSVSGAPGQRVTISCTDSSSDIGAGLGVHWYQQLPGTAPKLLIEGYYNRPSGVPDRFSGSKSGTSASLTITGLLPEDEGDYYCQSYDGTLSALFGGGTKLTVLG
notes: human IgG1, lambda
For B7, the “TL1A Binding Level (Early)” value [1] was 61 RU, the “TL1A Binding Level (Late)” value [2] was 24 RU and the “TL1A Binding Level (Early)” value [3] was 65 RU. For the same binder, the “TL1A Binding Level (Late)” value [4] was 35 RU.

B8: 320-601 (antibody, human IgG1, name in Kabat numbering, V domains shown)
VH: QVQLVQSGAEVKKPGASVKVSCKASGYTFTSYDINWVRQAPGQGLEWMGWLNPNSGYTGYAQKFQGRVTMTADRSTSTAYMELSSLRSEDTAVYYCAREVPETAAFEYWGQGTLVTVSS
VL: QSVLTQPPSVSGAPGQRVTISCTSSSSDIGAGLGVHWYQQLPGTAPKLLIEGYYNRPSGVPDRFSGSKSGTSASLTITGLLPEDEGDYYCQSFDGTLSALFGGGTKLTVLG
notes: full-length human IgG1, lambda
For B8, the “Antibody IC50, TL1A induced caspase potency assay in TF-1 cells” value (“Antibody IC50” below) [5] was 2 ng/mL, the “Fold improvement over 320-179, TL1A induced caspase potency assay in TF-1 cells” value (“Fold improvement” for short) [5] was 10 fold and the “TL1A Binding Level (Early)” value [6] was 121 RU. For the same binder, the “TL1A Binding Level (Late)” value [7] was 120 RU.

B9: 320-613 (antibody, human IgG1, name in Kabat numbering, V domains shown)
VH: QVQLVQSGAEVKKPGASVKVSCKASGYTFTSYDINWVRQAPGQGLEWMGWLNPNSGYTGYAQKFQGRVTMTADRSTSTAYMELSSLRSEDTAVYYCAREVPETAAFEYWGQGTLVTVSS
VL: QSVLTQPPSVSGAPGQRVTISCTSSSSDIGAGLGVHWYQQLPGTAPKLLIEGYYNRPSGVPDRFSGSKSGTSASLTITGLLPEDEGDYYCQSWDYTLSALFGGGTKLTVLG
notes: as for B8
For B9, the “Antibody IC50” value [5] was 10 ng/mL, the “Fold improvement” value [5] was 4 fold and the “TL1A Binding Level (Early)” value [6] was 135 RU. The “TL1A Binding Level (Late)” value [7] was 131 RU.

B10: 320-611 (antibody, human IgG1, name in Kabat numbering, V domains shown)
VH: QVQLVQSGAEVKKPGASVKVSCKASGYTFTSYDINWVRQAPGQGLEWMGWLNPNSGYTGYAQKFQGRVTMTADRSTSTAYMELSSLRSEDTAVYYCAREVPETAAFEYWGQGTLVTVSS
VL: QSVLTQPPSVSGAPGQRVTISCTSSSSDIGAGLGVHWYQQLPGTAPKLLIEGYYNRPSGVPDRFSGSKSGTSASLTITGLLPEDEGDYYCQSWDKTLSALFGGGTKLTVLG
notes: as for B8
B10 was tested, and the “Antibody IC50” value [5] was 5 ng/mL, the “Fold improvement” value [5] was 8 fold and the “TL1A Binding Level (Early)” value [6] was 125 RU. For the same binder, the “TL1A Binding Level (Late)” value [7] was 127 RU.

B11: 320-236 (antibody, human IgG1, name in Kabat numbering, V domains shown)
VH: QVQLVQSGAEVKKPGASVKVSCKASGYTFTSYDINWVRQAPGQGLEWMGWLNPNSGNTGYAQKFQGRVTMTADRSTSTAYMELSSLRSEDTAVYYCAREVPETAAFEYWGQGTLVTVSS
VL: QSVLTQPPSVSGAPGQRVTISCTSSSSHIGAGLGVHWYQQLPGTAPKLLIEGYYNRPSGVPDRFSGSKSGTSASLTITGLLPEDEGDYYCQSYDGTLSALFGGGTKLTVLG
notes: human IgG1, lambda
In the case of B11, the “TL1A Binding Level (Early)” value [1] is reported as 254 RU, the “TL1A Binding Level (Late)” value [2] is reported as 232 RU and the “TL1A Binding Level (Early)” value [3] is reported as 5 RU. The “TL1A Binding Level (Late)” value [4] was 6 RU.

B12: 320-197 (antibody, human IgG1, name in Kabat numbering, V domains shown)
VH: QVQLVQSGAEVKKPGASVKVSCKASGYTFTSYDINWVRQAPGQGLEWMGWLNPNSGNTGYAQKFQGRVTMTADRSTSTAYMELSSLRSEDTAVYYCAREVPETAAFEYWGQGTLVTVSS
VL: QSVLTQPPSVSGAPGQRVTISCKSSSSDIGAGLGVHWYQQLPGTAPKLLIEGYYNRPSGVPDRFSGSKSGTSASLTITGLLPEDEGDYYCQSYDGTLSALFGGGTKLTVLG
notes: human IgG1, lambda
For B12, the “TL1A Binding Level (Early)” value [1] was 255 RU, the “TL1A Binding Level (Late)” value [2] was 232 RU and the “TL1A Binding Level (Early)” value [3] was 105 RU. For the same binder, the “TL1A Binding Level (Late)” value [4] was 94 RU.
